# Test results reported in patent publication US7528244 (Amgen, dated 2009).
# Key:
# Casper (192-480) [1] = target: T1, Casper (192-480) (human, UniProt O15519 192-480); assay: co-immunoprecipitation in 293 cells
# T1 construct: also called C-terminal protease-like domain of Casper
# Casper (192-480) [2] = target: T1, Casper (192-480); assay: anti-Flag immunoprecipitation, caspase-3 immunoblot, 293 cells
# CrmA = target: T2, CrmA (UniProt P07385 1-341); assay: co-transfection and co-immunoprecipitation in mammalian cells
# T2 construct: also called Myc-CrmA
# T1 sequence (O15519 192-480): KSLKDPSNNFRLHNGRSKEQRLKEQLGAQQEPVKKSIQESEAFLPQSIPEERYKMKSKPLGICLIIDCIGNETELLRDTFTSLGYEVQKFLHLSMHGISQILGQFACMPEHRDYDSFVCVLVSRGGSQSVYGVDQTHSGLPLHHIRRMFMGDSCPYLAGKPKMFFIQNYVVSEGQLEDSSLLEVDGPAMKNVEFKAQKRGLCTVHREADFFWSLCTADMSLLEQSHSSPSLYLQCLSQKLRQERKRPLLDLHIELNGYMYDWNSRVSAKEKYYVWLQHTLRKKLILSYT
Binder,binding result (Casper (192-480) [1]),binding result (Casper (192-480) [2]),binding result (CrmA)
"FADD (other, UniProt Q13158 1-208, looked up, also called Flag-tagged FADD; AU1-tagged FADD) MDPFLVLLHSVSSSLSSSELTELKFLCLGRVGKRKLERVQSGLDLFSMLLEQNDLEPGHTELLRELLASLRRHDLLRRVDDFEAGAAAGAAPGEEDLCAAFNVICDNVGKDWRRLARQLKVSDTKIDSIEDRYPRNLTERVRESLRIWKNTEKENATVAHLVGALRSCQMNLVADLVQEVQQARDLQNRSGAMSPMSWNSDASTSEAS",no binding,–,–
"caspase-3 (enzyme, UniProt P42574 1-277, looked up, also called caspase-3 precursor) MENTENSVDSKSIKNLEPKIIHGSESMDSGISLDNSYKMDYPEMGLCIIINNKNFHKSTGMTSRSGTDVDAANLRETFRNLKYEVRNKNDLTREEIVELMRDVSKEDHSKRSSFVCVLLSHGEEGIIFGTNGPVDLKKITNFFRGDRCRSLTGKPKLFIIQACRGTELDCGIETDSGVDDDMACHKIPVEADFLYAYSTAPGYYSWRNSKDGSWFIQSLCAMLKQYADKLEFMHILTRVNRKVATEFESFSFDATFHAKKQIPCIVSMLTKELYFYH",–,binds,no binding
